Results reported in paper PMC6225287 (2018).

Biological target: FGF-2 (Homo sapiens, UniProt P09038)
Test: SPR

Sequence of FGF-2 (P09038 143-288): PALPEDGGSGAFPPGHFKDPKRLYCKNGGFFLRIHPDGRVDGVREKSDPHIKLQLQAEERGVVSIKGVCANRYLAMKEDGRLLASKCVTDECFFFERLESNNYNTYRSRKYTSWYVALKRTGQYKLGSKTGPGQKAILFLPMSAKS

QEDYDKDGIGDACDD [DD15 peptide (thrombospondin-1) type III repeats]
Kd: 28 µM
